According to paper PMC9065997, “Mitochondria-associated myosin 19 processively transports mitochondria on actin tracks in living cells” (The Journal of Biological Chemistry, 2022):

Target: the molecule itself
Assay: single-molecule photobleaching steps and spot intensity distribution (TIRF microscopy, HILO illumination); Halo-HM19 constructs expressed in living HeLa cells, stained with R110 Direct HaloTag ligand, spots in filopodia, 37 °C

B1: Halo-HM19^IQ3LZ (tail-truncated human myosin 19, residues 1-834, forced dimer with GCN4 leucine zipper, N-terminal HaloTag) (other)
chain: MLQQVNGHNPGSDGQAREYLREDLQEFLGGEVLLYKLDDLTRVNPVTLETVLRCLQARYMADTFYTNAGCTLVALNPFKPVPQLYSPELMREYHAAPQPQKLKPHVFTVGEQTYRNVKSLIEPVNQSIVVSGESGAGKTWTSRCLMKFYAVVATSPASWESHKIAERIEQRILNSNPVMEAFGNACTLRNNNSSRFGKFIQLQLNRAQQMTGAAVQTYLLEKTRVACQASSERNFHIFYQICKGASEDERLQWHLPEGAAFSWLPNPERSLEEDCFEVTREAMLHLGIDTPTQNNIFKVLAGLLHLGNIQFAASEDEAQPCQPMDDAKYSVRTAASLLGLPEDVLLEMVQIRTIRAGRQQQVFRKPCARAECDTRRDCLAKLIYARLFDWLVSVINSSICADTDSWTTFIGLLDVYGFESFPDNSLEQLCINYANEKLQQHFVAHYLRAQQEEYAVEGLEWSFINYQDNQPCLDLIEGSPISICSLINEECRLNRPSSAAQLQTRIETALAGSPCLGHNKLSREPSFIVVHYAGPVRYHTAGLVEKNKDPIPPELTRLLQQSQDPLLMGLFPTNPKEKTQEEPPGQSRAPVLTVVSKFKASLEQLLQVLHSTTPHYIRCIKPNSQGQAQTFLQEEVLSQLEACGLVETIHISAAGFPIRVSHRNFVERYKLLRRLHPCTSSGPDSPYPAKGLPEWCPHSEEATLEPLIQDILHTLPVLTQAAAITGDSAEAMPAPMHCGRTKVFMTDSMLELLECGRARVLEQCARCIQGGWRRHRHREQERQWRAVMLIQAAIRSWLTRKHIQRLHAAATVIKRAWQKWRIRMACLAAKELDGGTTHSYTSMKQLEDKVEELLSKNYHLENEVARLKKLVGERTSMKQLEDKVEELLSKNYHLENEVARLKKLVGERTSGSEL
modifications: rhodamine 110 (R110 Direct HaloTag ligand) on the HaloTag
notes: myosin 19 (Myo19, HM19), human, residues 1-834 (motor domain and three IQ motifs; 835 to 970 removed), cDNA from GeneCopoeia NM_001163735.1; also called R110-Halo-HM19^IQ3LZ; R110-Halo-HM19^IQ3-LZ; source: HeLa cells, transfected, in living cells; not shown: HaloTag, N-terminal, kept
- stoichiometry N: 2
